Assay results as given in patent US7981863B2, “Treatment of Parkinson's disease with PDGF” (Neuronova AB, priority 2001, dated 2011).

Test system: Healthy Rats
Assay: ICV infusion in healthy rats, BrdU / NeuN labelling
Format: in vivo, rat
Method: Male rats (12 hours light/dark regime; feeding and drinking ad libitum; 5 animals in standard cage) were infused (Alzet minipumps) in the left lateral ventricle with human recombinant PDGF-BB for 7 days at a daily dose of 36 ng/day (8 animals/group). Human recombinant BDNF (brain derived neurotrophic factor) was used as a positive control (Pencea V et al., J. Neurosci Sep. 1 (2001), 21(17):6706-17). Bromodeoxyuridine (BrdU) was also included in the infusion vehicle (artificial cerebrospinal fluid) to enable measurement of proliferation by quantitation of BrdU incorporation in the DNA. Animals were sacrificed at 7 (proliferation) or 28 days (neurogenesis) after start of treatment and brains were dissected and prepared for sectioning and immunohistochemistry (Pencea V et al., J. Neurosci Sep. 1 (2001), 21(17):6706-17).
Proliferation was measured by BrdU incorporation and diaminobenzidine (DAB) staining of HRP conjugated secondary antibodies (FIG. 7). Cells were counted in a phase contrast microscope. Neural phenotype was assessed by staining for neuronal marker NeuN by immunocytochemistry using a fluorescence readout. The secondary antibodies were labeled with FITC or Alexa Fluor568. In double staining analyses designed to measure neurogenesis, BrdU and NeuN were quantitated by fluorescence (above) and counting of cells was done in a confocal microscope. For further experimental details, see Pencea V et al., J. Neurosci Sep. 1 (2001), 21(17):6706-17. A number of brain regions were analysed.

B1: PDGF-BB: human recombinant PDGF-BB, platelet derived growth factor B-chain homodimer (protein)
chain: SLGSLTIAEPAMIAECKTRTEVFEISRRLIDRTNANFLVWPPCVEVQRCSGCCNNRNVQCRPTQVQLRPVQVRKIEIVRKKPIFKKATVTLEDHLACKCETVAAARPVT
- Cell count (BrdU, proliferation) along the lateral ventricle wall (7-day group, ICV infusion 7 days, 36 ng/day, mean of two sections, mean +/- sem): 216 +/−25
- number of proliferating cells in the subventricular zone (28-day group): no such statistically significant effect
- neurogenesis in the striatum (28-day group, in comparison to vehicle treated animals): significantly increase neurogenesis
- BrdU positive cells in the dentate gyrus, the CA1 and the alveus (28-day group, in comparison to vehicle-treated animals): no significant effect
- BrdU positive cells in the striatum (28-day group, cells counted in 300 × 300 μm squares): 40 ± 6.8 (p < 0.01 to vehicle, ANOVA)
